Data taken from US20150065436A1 (UNIVERSITY OF SOUTHERN CALIFORNIA, published 2015).
Ends that are not written are not given here.

What was measured:
[1] = biological target: T1, p300-CH1 (cysteine-histidine rich 1 domain of human coactivator protein p300, amino acid residues 323-423) (human, UniProt Q09472 323-423, uniformly 15N-labelled; folded with 3 equivalents of Zn2+); test: fluorescence polarization, p300-CH1 titrated into 15 nM fluorescein-labeled HIF-1α C-TAD786-826
T1 construct: range 323-423; Expressed in E. coli from pGEX-4T-2 as a GST fusion; also called p300 CH1 domain; 15N-labeled p300-CH1

[2] = biological target: T1, p300-CH1 (cysteine-histidine rich 1 …); test: fluorescence polarization, p300-CH1 titrated into 15 nM fluorescein-labeled HIF peptide

T1 sequence (Q09472 323-423 limits assumed): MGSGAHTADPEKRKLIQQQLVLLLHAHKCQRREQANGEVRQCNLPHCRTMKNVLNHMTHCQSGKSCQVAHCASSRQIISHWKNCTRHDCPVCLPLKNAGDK

EC50 (read off the curve) [1]: ~40 nM
Kd [1]: 31.9 nM
Kd [2]: 31 nM
B1: fluorescein-labeled HIF-1α C-TAD786-826 (peptide)
peptide: SMDESGLPQLTSYDCEVNAPIQGSRNLLQGEELLRALDQVN
modifications: also: fluorescein label, site shown only in structure
notes: Fluorescent probe of the polarization assay; also called Flu-HIF C-TAD
